From paper PMC9404054, “Efficient screening for 8-oxoguanine DNA glycosylase binding aptamers via capillary electrophoresis”

What was measured:
[1] = target: T1, 8-oxoguanine DNA glycosylase (OGG1) (UniProt O15527 1-345); assay: capillary electrophoresis (NECEEM); 0.2 uM aptamer, 5.0 uM OGG1, n=3; CE in fused-silica capillary (75 um i.d. x 50.2 cm, 40 cm effective); borate reagents listed; 15 min incubation stated for the selection; buffer composition, pH and temperature not in the material; details: protein: commercial; (library is FAM labelled)
T1 sequence (O15527 whole entry, the tested form may be a part): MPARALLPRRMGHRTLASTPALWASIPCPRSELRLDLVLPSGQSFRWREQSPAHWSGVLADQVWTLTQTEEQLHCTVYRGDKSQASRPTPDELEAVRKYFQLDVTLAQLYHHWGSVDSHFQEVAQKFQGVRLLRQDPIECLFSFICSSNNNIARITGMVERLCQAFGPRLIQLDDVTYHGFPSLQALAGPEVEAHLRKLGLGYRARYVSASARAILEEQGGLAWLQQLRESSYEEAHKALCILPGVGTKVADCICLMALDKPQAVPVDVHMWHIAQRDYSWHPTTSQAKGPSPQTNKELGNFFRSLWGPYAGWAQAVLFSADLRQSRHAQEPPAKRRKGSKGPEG

[2] = target: T1, 8-oxoguanine DNA glycosylase (OGG1); assay: capillary electrophoresis (NECEEM); 0.2 uM aptamer, 5.0 uM OGG1, n=3; abstract gives range 1.71-2.64 uM for the top three candidates; CE in fused-silica capillary (75 um i.d. x 50.2 cm, 40 cm effective); borate reagents listed; 15 min incubation stated for the selection; buffer composition, pH and temperature not in the material; details: protein: commercial; (library is FAM labelled)

Binder	Kd [1]	Kd [2]
OGG1-Apt 2 (ssDNA) DNA: AGCAGCACAGAGGTCAGATGTTGATGGCAGGTATTGCTAGGTCTACATGGAACTTGTTAACCTATGCGTGCTACCGTGAA	2600 ± 200 nM	
OGG1-Apt 4 (ssDNA) DNA: AGCAGCACAGAGGTCAGATGGCGAAGCGTACCGGCTACCCAGTGACAGTCGCCGTGGGTCCCTATGCGTGCTACCGTGAA		2800 ± 200 nM
OGG1-Apt 1 (ssDNA) DNA: AGCAGCACAGAGGTCAGATGGCCACATTAGTCTCACCACTACCTGCGTACCTACCGCCGCCCTATGCGTGCTACCGTGAA	1700 ± 100 nM	
OGG1-Apt 6 (ssDNA) DNA: AGCAGCACAGAGGTCAGATGCCGATCGTTGTTCCCGATCAAGATGGGGAATCTCAGTCGCCCTATGCGTGCTACCGTGAA	1800 ± 100 nM	
